Assay results published in patent US12139531B2, “Compositions and methods useful in promoting milk production” (The Regents of the University of California, priority 2019, dated 2024).
Entries after “also recorded” stand apart in the source; their conditions may differ.

T1: ROBO2 (Homo sapiens, UniProt Q9HCK4)
T1 construct: expressed in transfected cells; host or cells: Cos7
T1 sequence (Q9HCK4 22-1378): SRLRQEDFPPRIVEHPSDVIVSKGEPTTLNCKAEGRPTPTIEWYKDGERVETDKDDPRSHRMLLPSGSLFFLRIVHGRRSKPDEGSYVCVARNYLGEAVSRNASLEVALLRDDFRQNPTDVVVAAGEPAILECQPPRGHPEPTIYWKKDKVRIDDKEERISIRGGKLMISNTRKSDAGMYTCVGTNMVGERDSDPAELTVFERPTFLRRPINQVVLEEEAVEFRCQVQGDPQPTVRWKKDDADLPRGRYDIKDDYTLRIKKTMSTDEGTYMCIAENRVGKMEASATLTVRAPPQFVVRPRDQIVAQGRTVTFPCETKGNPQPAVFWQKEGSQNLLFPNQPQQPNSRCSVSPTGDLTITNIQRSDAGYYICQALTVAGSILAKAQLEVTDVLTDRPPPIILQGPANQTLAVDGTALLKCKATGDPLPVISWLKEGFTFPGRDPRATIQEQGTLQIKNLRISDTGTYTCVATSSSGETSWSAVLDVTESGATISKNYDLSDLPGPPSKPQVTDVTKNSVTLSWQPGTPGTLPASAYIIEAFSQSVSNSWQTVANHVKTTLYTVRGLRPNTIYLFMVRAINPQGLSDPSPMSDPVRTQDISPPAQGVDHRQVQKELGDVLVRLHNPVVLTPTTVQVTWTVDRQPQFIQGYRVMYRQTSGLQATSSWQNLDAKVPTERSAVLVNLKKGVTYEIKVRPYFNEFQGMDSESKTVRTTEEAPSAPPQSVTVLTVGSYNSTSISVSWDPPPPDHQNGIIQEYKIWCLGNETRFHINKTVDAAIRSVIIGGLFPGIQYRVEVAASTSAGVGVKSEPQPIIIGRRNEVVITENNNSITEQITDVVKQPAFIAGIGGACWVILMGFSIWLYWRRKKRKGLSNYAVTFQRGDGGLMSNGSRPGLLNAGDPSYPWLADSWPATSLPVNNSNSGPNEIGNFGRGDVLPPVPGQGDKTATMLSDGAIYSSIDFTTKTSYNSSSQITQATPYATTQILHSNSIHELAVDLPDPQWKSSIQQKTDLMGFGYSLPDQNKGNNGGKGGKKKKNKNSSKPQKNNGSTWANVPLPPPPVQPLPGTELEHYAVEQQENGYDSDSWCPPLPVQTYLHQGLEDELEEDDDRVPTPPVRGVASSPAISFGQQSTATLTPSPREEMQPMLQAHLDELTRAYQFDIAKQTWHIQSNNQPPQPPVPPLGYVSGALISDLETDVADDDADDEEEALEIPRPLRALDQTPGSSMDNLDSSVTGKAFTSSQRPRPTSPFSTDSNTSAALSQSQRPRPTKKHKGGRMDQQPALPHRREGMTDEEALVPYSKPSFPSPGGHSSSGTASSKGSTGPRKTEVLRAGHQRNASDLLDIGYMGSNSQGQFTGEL


Experiments:
[1] = test system: HC11 cells; assay: HC11 dome assay (milk dome formation on differentiation in DIP media); assay type: cell-based, mouse; conditions: HC11 cells, increasing ECD concentration
Experimental: To investigate ROBO1 function during alveologenesis, Robo1 gene expression was inhibited in HC11 cells (Robo1 KD). HC11 cells are a well-established, prolactin-responsive model of lactation,^19,20. Cells in which Robo1 gene expression was not inhibited are referred to as WT or Robo1+/+ herein. To measure milk production, cells were grown to confluence and then primed by treatment with epidermal growth factor (EGF, 10 ng/ml). The EGF is administered for three days in combination with charcoal-stripped fetal bovine serum, followed by one day of charcoal-stripped fetal bovine serum in the absence of EGF. These primed cells are then differentiated by treatment with dexamethasone (1 μg/ml), insulin (5 μg/ml) and prolactin (Prl, 5 μg/ml) media (DIP media) for between 3 and 5 days (FIG. 2A). Differentiation (Dif) results in the development of milk-filled domes (FIG. 2B). […] If the cells were left undifferentiated (Undif), there was little dome formation in either WT or Robo1−/− cells (FIG. 2B). Next, tissue from Robo1 knockout mice (Robo1−/−) and wild type mice (WT or Robo1+/+) mice was analyzed. Mammary glands were harvested from pregnant day 18 WT and Robo1−/− animals and alveologenesis analyzed by serially sectioning, carmine staining and then quantifying the area occupied by alveoli in sections located at top, middle and bottom portions of the tissue.
Dome number formation in response to a titration of ROBO1 ECD fragments was quantified. […] A bovine ROBO1-Ig5 construct was also tested in this assay and, as with the rat constructs, more domes were formed in response to treatment with higher concentrations of […] (FIG. 7H).
HC11 cells were grown in RPMI 1640 media (Gibco) supplemented with 10% fetal bovine serum (BioFluid Technologies), 5 μg/mL insulin (Sigma), and 10 ng/ml epidermal growth factor (EGF; Sigma). To induce differentiation in HC11 cells, confluent plates were given fresh media (RPMI 1640 media supplemented with 5% charcoal-stripped fetal bovine serum (BioFluid Technologies), 5 μg/mL insulin, and 10 ng/ml epidermal growth factor (EGF; Sigma) for 3 days followed by 24 hours of priming in priming medium (RPMI 1640 media supplemented with 5% charcoal-stripped fetal bovine serum (BioFluid Technologies), and 5 μg/mL insulin. After priming, DIP medium (RPMI 1640 media supplemented with 5% charcoal-stripped fetal bovine serum (BioFluid Technologies), 10^−6 M dexamethasone (Sigma), 5 μg/mL insulin, and 5 μg/mL prolactin (National Hormone and Peptide program) was added with fresh media every 24 hours.

[2] = test system: HC11 cells; assay: Western blot analysis of WAP and PLIN2 in HC11 cells; assay type: cell-based, mouse; conditions: ECD titration
Experimental: To determine whether the promotion of dome formation also results in higher milk production, HC11 cells were differentiated in the presence or absence of ROBO1-ECD fragments that were added to cells simultaneously with DIP media. Cells were harvested and the expression of WAP and Lalba assessed by RT-qPCR. […] WAP expression levels were not increased in cells treated with DCC-Ig4 (FIG. 7K). Next, Western blot analysis of WAP and PLIN2 was performed on cells treated with ROBO1-Ig5 and ROBO1-Ecto.
Protein lysates were prepared by directly lysing adherent cells in 1× sample buffer supplemented with 5% beta-mercaptoethanol and boiled for 5 minutes. Protein lysate was resolved by SDS-PAGE and transferred to a PVDF for 90 minutes at 400 mA or overnight at 30 mA. Primary antibodies were used at the concentration indicated in Table 1 and incubated overnight at 4° C. HRP conjugated secondary antibodies (Jackson Labs) were used at 1:3000 and incubated for 45 minutes at room temp. All proteins were detected using Clarity ECL (BioRad) using a BioRad Chemi-Doc MP Imager and quantified using ImageLab software as previously described a.

[3] = test system: Notch signaling; assay: RT-qPCR of Notch effector expression (Hey1, Hes1) in HC11 cells; assay type: cell-based, mouse; conditions: HC11 cells treated with ROBO1-ECD fragments
Experimental: To examine the effects of ROBO1-ECD fragments on Notch signaling, HC11 cells were treated with ROBO1-ECD fragments and Notch effector expression assessed. […] In addition, HC11 cells were treated with ROBO-Ig5 during differentiation. These cells were then fractionated and a Western blot performed to detect HES1 and NOTCH4-ICD (FIG. 8B).
Total RNA was harvested from cells lysed in TRIzol reagent (Invitrogen) and phase separated according to manufacturer's protocol with an additional overnight RNA precipitation stem in ethanol (Macias et al., 2011). The RNA was further purified with TURBO DNase (Ambion) treatment. Total RNA quality was analyzed by agarose gel electrophoresis and quantified with an ND-1000 spectrophotometer (NanoDrop). cDNA libraries were prepared from 1 μg of total RNA using iScript cDNA synthesis kit (BioRad). Quantitative RT-PCR was performed in triplicates using light Cycler 480 SYBR Green I Master (Roche) and quantified using BioRad CFX'Connect Real-Time System and CFX Manager software (BioRad). Results were normalized to GAPDH.

[4] = test system: HC11 cells; assay: Bodipy 493/503 neutral lipid staining of differentiated HC11 cells; assay type: cell-based, mouse; conditions: Bodipy493/503 staining
Experimental: To determine whether the ROBO1 ECD fragments influence NOTCH4 signaling, HC11 assays were performed to monitor dome formation using both phase contrast microscopy (FIG. 7A, B, top), and fluorescent microscopy using hydrophobic Bodipy493/503 that binds neutral lipids (FIG. 7A, B, bottom). Undifferentiated (Undif) cells are distinct with interconnecting processes visible in phase contrast and little/no Bodipy staining (FIG. 7A). Upon differentiation and prolactin treatment, small lipid droplets accumulate that appear as dark-rimmed circles in phase contrast (FIG. 7B, top) and as punctate green circles by Bodipy staining (FIG. 7B, bottom).
Place cells in a half-volume of buffer or media. Make a 2× solution (2 μg/ml=7.6 μM) of Invitrogen™ BODIPY™ 493/503 dye in 0.5 mL volume of the same pre-warmed buffer or media (no cells, no BSA or serum) and mix vigorously to mechanically emulsify this solution. Immediately add to the solution of cells, mix and incubate up to 30 min.

[5] = target: T1, ROBO2; assay: ECD binding assay on Cos7 cells overexpressing Robo2; conditions: Cos7 cells overexpressing Robo2, sodium azide, 1H incubation, immunostaining
Experimental: Soluble ROBO1 ECD fragments ROBO1-Ig2 and ROBO1-Ig5 generated in the presence of heparin were used in a dome assay. […] Because treatment with heparin had only a modest positive effect on ROBO1 ECD production and a deleterious effect on their function (FIG. 6C, E), the use of heparin to generate soluble ROBO1 ECD fragments was not pursued. The ability of a ROBO1 ECD fragment to bind ROBO2 receptors was tested by overexpressing Robo2 in Cos7 cells, treating cells with sodium azide to prevent protein internalization and then incubating cells with ROBO1-Ecto-HA 1H prior to fixation and immunostaining.

| Molecule | dome formation in response to a titration of ECD fragments [1] | PLIN2 protein expression [2] | WAP protein expression [2] | Hes1 expression [3] | Hey1 expression [3] | number of cells completely surrounded by lipid droplets [4] | binding to ROBO2 [5] |
| --- | --- | --- | --- | --- | --- | --- | --- |
| ROBO1-Ecto: recombinant soluble ROBO1 construct comprising the entire extracellular domain (protein, left off: small tags and cut ends, recombinant soluble ROBO1 construct comprising the entire extracellular domain) SRLRQEDFPPRIVEHPSDLIVSKGEPATLNCKAEGRPTPTIEWYKGGERVETDKDDPRSHRMLLPSGSLFFLRIVHGRKSRPDEGVYICVARNYLGEAVSHNASLEVAILRDDFRQNPSDVMVAVGEPAVMECQPPRGHPEPTISWKKDGSPLDDKDERITIRGGKLMITYTRKSDAGKYVCVGTNMVGERESEVAELTVLERPSFVKRPSNLAVTVDDSAEFKCEARGDPVPTVRWRKDDGELPKSRYEIRDDHTLKIRKVTAGDMGSYTCVAENMVGKAEASATLTVQEPPHFVVKPRDQVVALGRTVTFQCEATGNPQPAIFWRREGSQNLLFSYQPPQSSSRFSVSQTGDLTVTNVQRSDVGYYICQTLNVAGSIITKAYLEVTDVIADRPPPVIRQGPVNQTVAVDGTLTLSCVATGSPVPTILWRKDGVLVSTQDSRIKQLESGVLQIRYAKLGDTGRYTCTASTPSGEATWSAYIEVQEFGVPVQPPRPTDPNLIPSAPSKPEVTDVSKNTVTLLWQPNLNSGATPTSYIIEAFSHASGSSWQTVAENVKTETFAIKGLKPNAIYLFLVRAANAYGISDPSQISDPVKTQDVPPTTQGVDHKQVQRELGNVVLHLHNPTILSSSSVEVHWTVDQQSQYIQGYKILYRPSGASHGESEWLVFEVRTPTKNSVVIPDLRKGVNYEIKARPFFNEFQGADSEIKFAKTLEEAPSAPPRSVTVSKNDGNGTAILVTWQPPPEDTQNGMVQEYKVWCLGNETRYHINKTVDGSTFSVVIPSLVPGIRYSVEVAASTGAGPGVKSEPQF | higher rates of dome formation | approximately two-fold; also recorded: increased | approximately two-fold; also recorded: increased | lower expression; also recorded: decreased | lower expression; also recorded: decreased | higher number of cells completely surrounded by lipid droplets | – |
| DCC-Ig2: extracellular domain of Deleted in Colorectal Cancer comprising two Ig domains, HA tagged, negative control (protein, listed as Rattus norvegicus, HA tag, extracellular domain of Deleted in Colorectal Cancer comprising two Ig domains, HA tagged, negative control) FTSLHFVSEPSDAVTMRGGNVLLNCSAESDRGVPVIKWKKDGLILALGMDDRKQQLPNGSLLIQNILHSRHHKPDEGLYQCEASLGDSGSIISRTAKVMVAGPLRFLSQTESITAFMGDTVLLKCEVIGDPMPTIHWQKNQQDLNPIPGDSRVVVLPSGALQISRLQPGDSGVYRCSARNPASTRTGNEAEVRILSDPGL | not observed | – | – | – | – | – | does not bind |
